Reference: patent US20120122783A1 (INDIANA UNIVERSITY RESEARCH AND TECHOLOGY, published 2012)
Read-outs that look alike come from different tables or passages of the source. Square brackets hold non-standard residues; d marks the D form. Ends that are not written are not given here. Abu(4-SO3H) = N[C@@H](CCS(=O)(=O)O)C(=O)O; PhLac = O=C(O)[C@@H](O)Cc1ccccc1; PLA = not defined here

Tests used:
[1] = biological target: T1, human glucagon receptor (human, UniProt P47871 26-477); assay: SPA competition vs 125I-glucagon, receptor membranes
[2] = biological target: T1, human glucagon receptor; assay: cell-based or functional assay
[3] = biological target: human GLP-1 receptor (human, UniProt P43220 24-463); assay: cell-based or functional assay
[4] = biological target: T1, human glucagon receptor; assay: cell-based or functional assay; remark: listed apart in the source
[5] = biological target: T1, human glucagon receptor; assay: cell-based or functional assay; remark: listed apart in the source
[6] = biological target: T1, human glucagon receptor; assay: cell-based or functional assay; remark: listed apart in the source
[7] = biological target: T1, human glucagon receptor; assay: cell-based or functional assay; remark: listed apart in the source
[8] = biological target: T1, human glucagon receptor; assay: cell-based or functional assay; remark: listed apart in the source
[9] = biological target: T1, human glucagon receptor; assay: cell-based or functional assay; remark: listed apart in the source
[10] = biological target: T1, human glucagon receptor; assay: cell-based or functional assay; remark: listed apart in the source
[11] = biological target: T1, human glucagon receptor; assay: cell-based or functional assay; remark: listed apart in the source

T1 sequence (P47871 26-477): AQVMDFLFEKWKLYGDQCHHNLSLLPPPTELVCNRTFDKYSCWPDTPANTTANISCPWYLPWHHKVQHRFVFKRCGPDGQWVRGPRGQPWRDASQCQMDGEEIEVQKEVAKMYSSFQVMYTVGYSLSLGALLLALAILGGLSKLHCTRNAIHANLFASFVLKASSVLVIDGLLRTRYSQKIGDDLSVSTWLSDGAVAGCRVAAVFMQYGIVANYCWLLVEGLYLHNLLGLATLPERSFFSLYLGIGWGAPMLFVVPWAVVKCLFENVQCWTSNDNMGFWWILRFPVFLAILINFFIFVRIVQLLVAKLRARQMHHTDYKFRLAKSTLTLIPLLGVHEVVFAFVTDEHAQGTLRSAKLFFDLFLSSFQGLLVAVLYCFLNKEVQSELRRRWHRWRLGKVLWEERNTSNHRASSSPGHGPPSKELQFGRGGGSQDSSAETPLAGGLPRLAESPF

Molecule: [desHis^1, desPhe^6] Glucagon-NH2 (peptide)
- IC50 [1]: 130 nM
- cAMP Induction EC50 [2]: 1180 nM

Molecule: Oxyntomodulin KRNR (peptide)
- cAMP Induction EC50 [2]: 2.77 nM
- cAMP Induction EC50 [3]: 3.21 nM

Molecule: [PhLac]TS[Abu(4-SO3H)]YSKYLDSRRAQDFVQWLMNT-NH2 [[PLA6, hCys(SO3)9]Glucagon(aa6-29)-NH2]
- IC50 (nM) (cAMP, inhibit Glucagon) 0.1 nM or 0.2 nM [4]: 40.2 nM

Molecule: [PhLac]TSEYSKYLDSRRAQDFVQWLMNT-NH2 [[PLA6, E9]Glucagon(aa6-29)-NH2]
- Glucagon antagonism IC50(nM, inhibit 0.5 nM G) [5]: 23.8 nM
- IC50 (nM) (cAMP, inhibit 0.8 mM Glucagon) [6]: 64.8 nM

Molecule: GTFTSEYSKYLDSRRAQDFVQWLMNT-NH2 [[Glu^9]Glucagon(aa4-29)-NH2]
- cAMP (I/A)50, inhibition index [7]: 1380 ratio
- cAMP Inhibition IC50 [8]: 128 nM

B1: [PLA^4, E^9]Glucagon(aa4-29)-NH2 (peptide)
peptide: [PhLac]TFTSEYSKYLDSRRAQDFVQWLMNT-NH2
modifications: N-terminus assumed
SMILES: CSCC[C@H](NC(=O)[C@H](CC(C)C)NC(=O)[C@H](Cc1c[nH]c2ccccc12)NC(=O)[C@H](CCC(N)=O)NC(=O)[C@@H](NC(=O)[C@H](Cc1ccccc1)NC(=O)[C@H](CC(=O)O)NC(=O)[C@H](CCC(N)=O)NC(=O)[C@H](C)NC(=O)[C@H](CCCNC(=N)N)NC(=O)[C@H](CCCNC(=N)N)NC(=O)[C@H](CO)NC(=O)[C@H](CC(=O)O)NC(=O)[C@H](CC(C)C)NC(=O)[C@H](Cc1ccc(O)cc1)NC(=O)[C@H](CCCCN)NC(=O)[C@H](CO)NC(=O)[C@H](Cc1ccc(O)cc1)NC(=O)[C@H](CCC(=O)O)NC(=O)[C@H](CO)NC(=O)[C@@H](NC(=O)[C@H](Cc1ccccc1)NC(=O)[C@@H](NC(=O)[C@@H](O)Cc1ccccc1)[C@@H](C)O)[C@@H](C)O)C(C)C)C(=O)N[C@@H](CC(N)=O)C(=O)N[C@H](C(N)=O)[C@@H](C)O
- IC50 (nM) (cAMP, inhibit 0.8 mM Glucagon) [6]: 84.4 nM

B2: [PLA^5, E^9]Glucagon(aa5-29)-NH2 (peptide)
peptide: [PhLac]FTSEYSKYLDSRRAQDFVQWLMNT-NH2
modifications: N-terminus assumed
SMILES: CSCC[C@H](NC(=O)[C@H](CC(C)C)NC(=O)[C@H](Cc1c[nH]c2ccccc12)NC(=O)[C@H](CCC(N)=O)NC(=O)[C@@H](NC(=O)[C@H](Cc1ccccc1)NC(=O)[C@H](CC(=O)O)NC(=O)[C@H](CCC(N)=O)NC(=O)[C@H](C)NC(=O)[C@H](CCCNC(=N)N)NC(=O)[C@H](CCCNC(=N)N)NC(=O)[C@H](CO)NC(=O)[C@H](CC(=O)O)NC(=O)[C@H](CC(C)C)NC(=O)[C@H](Cc1ccc(O)cc1)NC(=O)[C@H](CCCCN)NC(=O)[C@H](CO)NC(=O)[C@H](Cc1ccc(O)cc1)NC(=O)[C@H](CCC(=O)O)NC(=O)[C@H](CO)NC(=O)[C@@H](NC(=O)[C@H](Cc1ccccc1)NC(=O)[C@@H](O)Cc1ccccc1)[C@@H](C)O)C(C)C)C(=O)N[C@@H](CC(N)=O)C(=O)N[C@H](C(N)=O)[C@@H](C)O
- IC50 (nM) (cAMP, inhibit 0.8 mM Glucagon) [6]: 328 nM

B3: [hCys^9(SO3H)]Glucagon(aa5-29)-NH2 (peptide)
peptide: TFTS[Abu(4-SO3H)]YSKYLDSRRAQDFVQWLMNT-NH2
modifications: N-terminus assumed
SMILES: CSCC[C@H](NC(=O)[C@H](CC(C)C)NC(=O)[C@H](Cc1c[nH]c2ccccc12)NC(=O)[C@H](CCC(N)=O)NC(=O)[C@@H](NC(=O)[C@H](Cc1ccccc1)NC(=O)[C@H](CC(=O)O)NC(=O)[C@H](CCC(N)=O)NC(=O)[C@H](C)NC(=O)[C@H](CCCNC(=N)N)NC(=O)[C@H](CCCNC(=N)N)NC(=O)[C@H](CO)NC(=O)[C@H](CC(=O)O)NC(=O)[C@H](CC(C)C)NC(=O)[C@H](Cc1ccc(O)cc1)NC(=O)[C@H](CCCCN)NC(=O)[C@H](CO)NC(=O)[C@H](Cc1ccc(O)cc1)NC(=O)[C@H](CCS(=O)(=O)O)NC(=O)[C@H](CO)NC(=O)[C@@H](NC(=O)[C@H](Cc1ccccc1)NC(=O)[C@@H](N)[C@@H](C)O)[C@@H](C)O)C(C)C)C(=O)N[C@@H](CC(N)=O)C(=O)N[C@H](C(N)=O)[C@@H](C)O
- cAMP IC50 [9]: 98.3 nM

Molecule: FTS[Abu(4-SO3H)]YSKYLDSRRAQDFVQWLMNT-NH2 [[hCys^9(SO3H)]Glucagon(aa6-29)-NH2]
- cAMP IC50 [10]: 133 nM
- cAMP IC50 [9]: 133 nM

Molecule: FTSEYSKYLDSRRAQDFVQWLMNT-NH2 [[Glu^9]Glucagon(aa6-29)-NH2]
- cAMP (I/A)50, inhibition index [7]: 486 ratio
- cAMP IC50 [10]: 97.2 nM
- cAMP Inhibition IC50 [8]: 97 nM

B4: [PLA6, D9, D28]Glucagon(aa6-29)-NH2 (peptide)
peptide: FTSDYSKYLDSRRAQDFVQWLMDT
modifications: N-terminal residue is phenyl lactic acid (PLA) in place of Phe 6; C-terminal amide
- IC50 (nM) (cAMP, inhibit Glucagon) 0.1 nM or 0.2 nM [4]: 1.32 nM
- Glucagon antagonism IC50(nM, inhibit 0.5 nM G) [5]: 9.03 nM

Molecule: SQGTFTS[Abu(4-SO3H)]YSKYLDSRRAQDFVQWLMNT-NH2 [[hCys^9(SO3H)]Glucagon(aa2-29)-NH2]
- cAMP IC50 [9]: 147 nM

Molecule: [PLA]TSEYSKYLDSRRAQDFVQWLMNTGPSSGAPPPS-NH2 (reading uncertain) [[PLA6, E9]Glucagon(aa6-29+CEX)-NH2]
- IC50 (nM) (cAMP, inhibit Glucagon) 0.1 nM or 0.2 nM [4]: 24.8 nM

Molecule: HSQGTFTSDYSRYLDSRRAQDFVQWLMNK [Glucagon R12 K29]
- cAMP Induction EC50 [3]: 0.41 nM
- cAMP Induction EC50 [11]: 0.81 nM

B5: [hCys^9(SO3H)]Glucagon(aa4-29)-NH2 (peptide)
peptide: GTFTS[Abu(4-SO3H)]YSKYLDSRRAQDFVQWLMNT-NH2
modifications: N-terminus assumed
SMILES: CSCC[C@H](NC(=O)[C@H](CC(C)C)NC(=O)[C@H](Cc1c[nH]c2ccccc12)NC(=O)[C@H](CCC(N)=O)NC(=O)[C@@H](NC(=O)[C@H](Cc1ccccc1)NC(=O)[C@H](CC(=O)O)NC(=O)[C@H](CCC(N)=O)NC(=O)[C@H](C)NC(=O)[C@H](CCCNC(=N)N)NC(=O)[C@H](CCCNC(=N)N)NC(=O)[C@H](CO)NC(=O)[C@H](CC(=O)O)NC(=O)[C@H](CC(C)C)NC(=O)[C@H](Cc1ccc(O)cc1)NC(=O)[C@H](CCCCN)NC(=O)[C@H](CO)NC(=O)[C@H](Cc1ccc(O)cc1)NC(=O)[C@H](CCS(=O)(=O)O)NC(=O)[C@H](CO)NC(=O)[C@@H](NC(=O)[C@H](Cc1ccccc1)NC(=O)[C@@H](NC(=O)CN)[C@@H](C)O)[C@@H](C)O)C(C)C)C(=O)N[C@@H](CC(N)=O)C(=O)N[C@H](C(N)=O)[C@@H](C)O
- cAMP IC50 [9]: 68.4 nM
